Data taken from patent US20230189818A1, “RNA-BASED CONTROL OF BOTRYTIS” (priority 2021, published 2023).

Assays:
[1] = system: Botrytis cinerea B05.10 isolate; experiment: Greenhouse whole plant assay (tomato 'Lanai', disease severity); format: in vivo; details: final rating day (rating #3), three runs, four-week-old 'Lanai' tomato plant
Botrytis cinerea conidia = experiment: In vitro liquid-based assay (fungal biomass, 96-well plates, Cytation 5); format: cell-based; details: co-incubated with conidia for three days, vs untreated control
Procedure, shortened: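 Conidia (5000/mL stock) were co-incubated with dsRNA or control treatments in pH 6.0 minimal medium. Incubation ran 72 h at 23 °C, shaking at 120 rpm under continuous light. Fungal biomass was measured by brightfield imaging (8 slices per well, 2.5× lens) and expressed as average reduction versus control.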

B1: GS2297: dsRNA trigger targeting B. cinerea Bcrpb5 (XM_024693733.1); trigger SEQ ID NO 23, RNA 35, reverse complement 47 (nucleic acid, listed as Botrytis cinerea)
sense: UGCACCAUCAGGUCCCGCUCAAAAGAUUAUUCCCGCUGUCGCAUCCGAGACAAGAAUCGAGACCUUCGUCGAGCAAGAUUUACUUGUCAAUAUUACACAUCAUGAAUUGGUUCCCAAGCAUGUUUUGUUAAGUAGAGAAGAGAGGGCCAAGUUGUUGUCAAGAUAUAGAUUGAAGGAUACUCAACUCCCACGUAUUCAGGCUGCGGAUCCAGUUGCAAAAUAUUUGGGAUUGAGAAGAGGGCAGGUCGUUAAGAUUAUCAGAAAGUCGGAAACUGCUGGUCGUUAUGCCAGUUACAGAUUGUGCGUAUAAUGGAGCUGGAGGGUAGAUGAUUUGGUGUUAAUAACUAGGGAGUUUCUUGGGAAAAAUUUGCAUAUUUGGGGAAGGCGUAAUAGGCUGGAAGAAAGACUGAGGAUGAGAUUGUCUAUUUUGGCUUUCCAGGAAGCAAUACUUUGAGACAUGAAAUUUGAUAUUAAAUUUCUUGUUCUGUAUAUUUCUGAUAGUUUCAGAGCUUUUCAAUAAGAUCUAUUCUACAGUUUUAAGAAUCCAGACUCACCCUUUGAGAAGCUCAUACAAAGUUCCUUCCUA
antisense: UAGGAAGGAACUUUGUAUGAGCUUCUCAAAGGGUGAGUCUGGAUUCUUAAAACUGUAGAAUAGAUCUUAUUGAAAAGCUCUGAAACUAUCAGAAAUAUACAGAACAAGAAAUUUAAUAUCAAAUUUCAUGUCUCAAAGUAUUGCUUCCUGGAAAGCCAAAAUAGACAAUCUCAUCCUCAGUCUUUCUUCCAGCCUAUUACGCCUUCCCCAAAUAUGCAAAUUUUUCCCAAGAAACUCCCUAGUUAUUAACACCAAAUCAUCUACCCUCCAGCUCCAUUAUACGCACAAUCUGUAACUGGCAUAACGACCAGCAGUUUCCGACUUUCUGAUAAUCUUAACGACCUGCCCUCUUCUCAAUCCCAAAUAUUUUGCAACUGGAUCCGCAGCCUGAAUACGUGGGAGUUGAGUAUCCUUCAAUCUAUAUCUUGACAACAACUUGGCCCUCUCUUCUCUACUUAACAAAACAUGCUUGGGAACCAAUUCAUGAUGUGUAAUAUUGACAAGUAAAUCUUGCUCGACGAAGGUCUCGAUUCUUGUCUCGGAUGCGACAGCGGGAAUAAUCUUUUGAGCGGGACCUGAUGGUGCA
% control ([1]; 8 g ai/ha): 6%
% control ([1]; 25 g ai/ha): 29%
Average % Reduction in Biomass (Botrytis cinerea conidia; 25 ppm dsRNA): 11%
Average % Reduction in Biomass (Botrytis cinerea conidia; 150 ppm dsRNA): 24%
